Earlier results, collected in publication PMC8335159.

Tests used:
[1] = biological target: TIMP-3 cyclic peptide 62-68 (Homo sapiens)
[2] = biological target: TIMP-3 cyclic peptide 61-70 (Homo sapiens)
[3] = biological target: TIMP-3 cyclic peptide 60-70 (Homo sapiens)
[4] = biological target: VWF peptide 1660-1668 (Homo sapiens) (UniProt P04275)

Row | Kd [1] | Kd [2] | Kd [3] | Ki [4] | Substance
1 | 25 µM | 3.7 µM | 18 µM |  | ADAM-17 (from UniProt P78536)
2 |  |  |  | 1 µM | ADAMTS-13 (from UniProt Q76LX8)
